Like-named read-outs stand apart in the source and are kept apart here.
Key:
Assay in all cases: AUC
Bac-Cys-ELP1 [1] = target: Bac-Cys-ELP1
Bac-Cys-ELP1 [2] = target: Bac-Cys-ELP1; remark: listed apart in the source
SynB1-Cys-ELP1 [3] = target: SynB1-Cys-ELP1
SynB1-Cys-ELP1 [4] = target: SynB1-Cys-ELP1; remark: listed apart in the source

| Substance | Ka (Bac-Cys-ELP1 [1]) [M⁻¹] | Ka (Bac-Cys-ELP1 [2]) [M⁻¹] | Ka (SynB1-Cys-ELP1 [3]) [M⁻¹] | Ka (SynB1-Cys-ELP1 [4]) [M⁻¹] |
| --- | --- | --- | --- | --- |
| Bac-Cys-ELP1 | 552 | 1290 | – | – |
| SynB1-Cys-ELP1 | – | – | 597 | 1480 |

— publication PMC3985474
